Data on five molecules can be found in patent US20190276511A1 (BIONTECH RNA PHARMACEUTICALS, published 2019).

For assay [1], the target named is T1, CD27-Fc (human, UniProt P26842 20-191).
T1 construct: extracellular domain; hinge included for covalent assembly; also called CD27 receptor-Fc fusion protein; not shown: human Fc gamma 1 region including the hinge region
T1 sequence (looked up): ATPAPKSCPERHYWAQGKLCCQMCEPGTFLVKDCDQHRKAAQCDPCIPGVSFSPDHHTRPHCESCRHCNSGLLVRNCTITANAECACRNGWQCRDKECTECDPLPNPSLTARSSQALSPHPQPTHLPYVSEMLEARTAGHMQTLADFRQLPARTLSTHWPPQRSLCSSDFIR
Nature of the assay: ELISA, coated receptor-Fc.

A further assay addresses T2, 4-1BB-Fc (human, UniProt Q07011 24-186).
T2 construct: extracellular domain; hinge included for covalent assembly; also called 4-1BB receptor-Fc fusion protein; not shown: human Fc gamma 1 region including the hinge region
Nature of the assay: ELISA, coated receptor-Fc. (In general: ELISA stands for enzyme-linked immunosorbent assay.)

Assay [2] has as its target T3, CD40-Fc (human, UniProt P25942 21-193).
T3 construct: extracellular domain; hinge included for covalent assembly; also called CD40 receptor-Fc fusion protein; not shown: human Fc gamma 1 region including the hinge region
Nature of the assay: ELISA, coated receptor-Fc. As for the experimental part:
(§1) Receptor binding of the Duokines was analyzed by ELISA using fusion proteins of the extracellular region of CD40, CD27, 4-1BB and OX40, respectively, with the human Fcγ1 region including the hinge region for covalent assembly (CD40-Fc, CD27-Fc, 4-1BB-Fc, OX40-Fc). Receptor-Fc fusion proteins (200 ng/well) were coated overnight at 4° C. and remaining binding sites were blocked with PBS, 2% skimmed milk powder (2% MPBS).

Assay [3] concerns the target T4, OX40-Fc (human, UniProt P43489 29-214).
T4 construct: extracellular domain; hinge included for covalent assembly; also called OX40 receptor-Fc fusion protein; not shown: human Fc gamma 1 region including the hinge region
T4 sequence (looked up): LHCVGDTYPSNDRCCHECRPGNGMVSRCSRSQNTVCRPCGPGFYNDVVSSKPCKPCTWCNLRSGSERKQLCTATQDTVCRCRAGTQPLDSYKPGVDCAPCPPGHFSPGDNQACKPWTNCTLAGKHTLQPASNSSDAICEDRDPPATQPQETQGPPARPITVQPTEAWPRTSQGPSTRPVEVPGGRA
Nature of the assay: ELISA, coated receptor-Fc. As for the experimental part:
as §1

Assay [4] concerns the target T5, CD40 receptor on cells (human, UniProt P25942 21-277). As to the kind of experiment: cell-based or functional assay.
Assay [5] deals with T6, OX40 receptor on cells (human, UniProt P43489 29-277).
T6 sequence (looked up): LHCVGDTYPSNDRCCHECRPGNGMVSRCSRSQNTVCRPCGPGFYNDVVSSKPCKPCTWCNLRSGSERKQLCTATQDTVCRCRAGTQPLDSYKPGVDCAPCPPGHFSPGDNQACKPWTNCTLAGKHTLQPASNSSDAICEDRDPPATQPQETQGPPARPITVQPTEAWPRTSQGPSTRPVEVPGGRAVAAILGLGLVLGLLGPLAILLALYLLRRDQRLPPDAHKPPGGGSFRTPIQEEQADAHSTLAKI
As to the kind of experiment: cell-based or functional assay.

The target in assay [6] is T5, CD40 receptor on cells. Nature of the assay: cell-based or functional assay. The source holds these as a separate data set.
Assay [7] has as its target T6, OX40 receptor on cells. Nature of the assay: cell-based or functional assay. This is another data set of the same source.
For assay [8], the target named is T3, CD40-Fc. As to the kind of experiment: ELISA, coated receptor-Fc. The method, then: (§2) Receptor binding of the single-chain Duokines was analyzed by ELISA using fusion proteins of the extracellular region of CD40, CD27, 4-1BB and OX40, respectively, with the human Fcγ1 region including the hinge region for covalent assembly (CD40-Fc, CD27-Fc, 4-1BB-Fc, OX40-Fc). Receptor-Fc fusion proteins (200 ng/well) were coated overnight at 4° C. and remaining binding sites were blocked with PBS, 2% skimmed milk powder (2% MPBS). […] The interactions between scDuokine and receptor were dose-dependent with EC₅₀ values in the low nanomolar ranges (FIG. 11 AB, Tab. 2).
The source holds these as a separate data set.

Assay [9] concerns the target T4, OX40-Fc. Nature of the assay: ELISA, coated receptor-Fc. As for the experimental part:
as §2
This is another data set of the same source.

Assay [10] has as its target T3, CD40-Fc. As to the kind of experiment: ELISA, coated receptor-Fc. This is another data set of the same source.
In assay [11] the target is T1, CD27-Fc. Nature of the assay: ELISA, coated receptor-Fc. The method, then:
as §1
The source holds these as a separate data set.

For assay [12], the target named is T4, OX40-Fc. As to the kind of experiment: ELISA, coated receptor-Fc. This is another data set of the same source.
Assay [13] concerns the target T1, CD27-Fc. Nature of the assay: ELISA, coated receptor-Fc. As for the experimental part: as §2
The source holds these as a separate data set.

Where two headings read alike, the source gives them in different places.

T5 sequence (P25942 21-277): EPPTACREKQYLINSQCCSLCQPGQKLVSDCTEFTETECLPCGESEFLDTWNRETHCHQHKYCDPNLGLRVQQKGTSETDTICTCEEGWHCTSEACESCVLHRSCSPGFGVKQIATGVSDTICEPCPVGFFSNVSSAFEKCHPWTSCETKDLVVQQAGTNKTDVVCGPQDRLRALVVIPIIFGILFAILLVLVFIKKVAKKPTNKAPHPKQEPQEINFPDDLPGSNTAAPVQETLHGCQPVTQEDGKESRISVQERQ
T3 sequence (P25942 21-193 limits assumed): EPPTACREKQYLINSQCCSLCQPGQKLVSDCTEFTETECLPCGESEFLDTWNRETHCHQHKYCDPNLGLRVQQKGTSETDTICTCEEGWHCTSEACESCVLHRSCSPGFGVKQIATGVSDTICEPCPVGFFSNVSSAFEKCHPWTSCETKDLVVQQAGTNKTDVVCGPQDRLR

B1: CD40L-OX40L (ligand)
chain: GDQNPQIAAHVISEASSKTTSVLQWAEKGYYTMSNNLVTLENGKQLTVKRQGLYYIYAQVTFCSNREASSQAPFIASLCLKSPGRFERILLRAANTHSSAKPCGQQSIHLGGVFELQPGASVFVNVTDPSQVSHGTGFTSFGLLKLGGGGSGGGGSGGGGSQVSHRYPRIQSIKVQFTEYKKEKGFILTSQKEDEIMKVQNNSVIINCDGFYLISLKGYFSQEVNISLHYQKDEEPLFQLKKVRSVNSLMVASLTYKDKVYLNVTTDNTSLDDFHVNGGELILIHQNPGEFCVL
notes: Duokine from HEK293, FLAG-purified; VH leader left out; homotrimer by SEC; also called Duokine CD40L-OX40L; not shown: N-terminal FLAG tag
As a reminder, the EC50 is the concentration needed to bring the measured effect to its halfway point. Read a low EC50 as greater potency. With B1, the binding result with CD27-Fc [1] and with 4-1BB-Fc was “no binding (tested: 100 nM (FIG. 4))” throughout. For the same molecule, the values for the EC50 with CD40-Fc [2] and in the assay with OX40-Fc [3] were 2.18 nM and 0.51 nM, respectively. For the same molecule, the “Receptor activation (EC50, nM)” value with CD40 receptor on cells [4] stood at 16.6 nM; in the assay with OX40 receptor on cells [5] it was 0.7 nM.

B2: scCD40L-scOX40L (ligand)
chain: GDQNPQIAAHVISEASSKTTSVLQWAEKGYYTMSNNLVTLENGKQLTVKRQGLYYIYAQVTFCSNREASSQAPFIASLCLKSPGRFERILLRAANTHSSAKPCGQQSIHLGGVFELQPGASVFVNVTDPSQVSHGTGFTSFGLLKLGGGSGGGGDQNPQIAAHVISEASSKTTSVLQWAEKGYYTMSNNLVTLENGKQLTVKRQGLYYIYAQVTFCSNREASSQAPFIASLCLKSPGRFERILLRAANTHSSAKPCGQQSIHLGGVFELQPGASVFVNVTDPSQVSHGTGFTSFGLLKLGGGSGGGGDQNPQIAAHVISEASSKTTSVLQWAEKGYYTMSNNLVTLENGKQLTVKRQGLYYIYAQVTFCSNREASSQAPFIASLCLKSPGRFERILLRAANTHSSAKPCGQQSIHLGGVFELQPGASVFVNVTDPSQVSHGTGFTSFGLLKLGGGGSGGGTGGGGSQVSHRYPRIQSIKVQFTEYKKEKGFILTSQKEDEIMKVQNNSVIINCDGFYLISLKGYFSQEVNISLHYQKDEEPLFQLKKVRSVNSLMVASLTYKDKVYLNVTTDNTSLDDFHVNGGELILIHQNPGEFCVLGGGSGGGQVSHRYPRIQSIKVQFTEYKKEKGFILTSQKEDEIMKVQNNSVIINCDGFYLISLKGYFSQEVNISLHYQKDEEPLFQLKKVRSVNSLMVASLTYKDKVYLNVTTDNTSLDDFHVNGGELILIHQNPGEFCVLGGGSGGGQVSHRYPRIQSIKVQFTEYKKEKGFILTSQKEDEIMKVQNNSVIINCDGFYLISLKGYFSQEVNISLHYQKDEEPLFQLKKVRSVNSLMVASLTYKDKVYLNVTTDNTSLDDFHVNGGELILIHQNPGEFCVL
notes: scDuokine from HEK293, FLAG-purified; VH leader left out; also called single-chain Duokine scCD40L-scOX40L; not shown: N-terminal FLAG tag
Take B2: the binding result in the assay with CD27-Fc [1] and with 4-1BB-Fc was “no binding (tested: 100 nM (FIG. 10))” throughout. Further, the entries for the “Receptor activation (EC50, nM)” value with CD40 receptor on cells [6] and with OX40 receptor on cells [7] were 9.54 nM and 0.57 nM, respectively. The results for the 50% effective concentration (EC50) in the assay with CD40-Fc [8] and in the assay with OX40-Fc [9] were 40.2 nM and 1.33 nM, respectively.

B3: CD27L-OX40L (ligand)
chain: SLGWDVAELQLNHTGPQQDPRLYWQGGPALGRSFLHGPELDKGQLRIHRDGIYMVHIQVTLAICSSTTASRHHPTTLAVGICSPASRSISLLRLSFHQGCTIASQRLTPLARGDTLCTNLTGTLLPSRNTDETFFGVQWVRPGGGGSGGGGSGGGGSQVSHRYPRIQSIKVQFTEYKKEKGFILTSQKEDEIMKVQNNSVIINCDGFYLISLKGYFSQEVNISLHYQKDEEPLFQLKKVRSVNSLMVASLTYKDKVYLNVTTDNTSLDDFHVNGGELILIHQNPGEFCVL
notes: Duokine from HEK293, FLAG-purified; VH leader left out; homotrimer by SEC; also called Duokine CD27L-OX40L; not shown: N-terminal FLAG tag
For B3, the binding result with CD40-Fc [10] and with 4-1BB-Fc was “no binding (tested: 100 nM (FIG. 4))” each time. In addition, the results for the EC50 in the assay with CD27-Fc [11] and with OX40-Fc [3] were 6.74 nM and 3.16 nM, respectively. In addition, the “Receptor activation (EC50, nM)” value with OX40 receptor on cells [5] was determined as 10.2 nM.

B4: OX40L-CD40L (ligand)
chain: QVSHRYPRIQSIKVQFTEYKKEKGFILTSQKEDEIMKVQNNSVIINCDGFYLISLKGYFSQEVNISLHYQKDEEPLFQLKKVRSVNSLMVASLTYKDKVYLNVTTDNTSLDDFHVNGGELILIHQNPGEFCVLGGGGSGGGGSGGGGSGDQNPQIAAHVISEASSKTTSVLQWAEKGYYTMSNNLVTLENGKQLTVKRQGLYYIYAQVTFCSNREASSQAPFIASLCLKSPGRFERILLRAANTHSSAKPCGQQSIHLGGVFELQPGASVFVNVTDPSQVSHGTGFTSFGLLKL
notes: Duokine from HEK293, FLAG-purified; VH leader left out; homotrimer by SEC; also called Duokine OX40L-CD40L; not shown: N-terminal FLAG tag
Turning to B4, the binding result with CD27-Fc [1] and in the assay with 4-1BB-Fc was “no binding (tested: 100 nM (FIG. 4))” in each case. Moreover, the concentration for a half-maximal effect (EC50) with CD40-Fc [2] was 1.45 nM; with OX40-Fc [3] it was 1.01 nM. Also, the “Receptor activation (EC50, nM)” value with CD40 receptor on cells [4] came out at 3.86 nM; with OX40 receptor on cells [5], 0.73 nM.

B5: scCD27L-scCD40L (ligand)
chain: SLGWDVAELQLNHTGPQQDPRLYWQGGPALGRSFLHGPELDKGQLRIHRDGIYMVHIQVTLAICSSTTASRHHPTTLAVGICSPASRSISLLRLSFHQGCTIASQRLTPLARGDTLCTNLTGTLLPSRNTDETFFGVQWVRPGGGSGGGSLGWDVAELQLNHTGPQQDPRLYWQGGPALGRSFLHGPELDKGQLRIHRDGIYMVHIQVTLAICSSTTASRHHPTTLAVGICSPASRSISLLRLSFHQGCTIASQRLTPLARGDTLCTNLTGTLLPSRNTDETFFGVQWVRPGGGSGGGSLGWDVAELQLNHTGPQQDPRLYWQGGPALGRSFLHGPELDKGQLRIHRDGIYMVHIQVTLAICSSTTASRHHPTTLAVGICSPASRSISLLRLSFHQGCTIASQRLTPLARGDTLCTNLTGTLLPSRNTDETFFGVQWVRPGGGGSGGGTGGGGSGDQNPQIAAHVISEASSKTTSVLQWAEKGYYTMSNNLVTLENGKQLTVKRQGLYYIYAQVTFCSNREASSQAPFIASLCLKSPGRFERILLRAANTHSSAKPCGQQSIHLGGVFELQPGASVFVNVTDPSQVSHGTGFTSFGLLKLGGGSGGGGDQNPQIAAHVISEASSKTTSVLQWAEKGYYTMSNNLVTLENGKQLTVKRQGLYYIYAQVTFCSNREASSQAPFIASLCLKSPGRFERILLRAANTHSSAKPCGQQSIHLGGVFELQPGASVFVNVTDPSQVSHGTGFTSFGLLKLGGGSGGGGDQNPQIAAHVISEASSKTTSVLQWAEKGYYTMSNNLVTLENGKQLTVKRQGLYYIYAQVTFCSNREASSQAPFIASLCLKSPGRFERILLRAANTHSSAKPCGQQSIHLGGVFELQPGASVFVNVTDPSQVSHGTGFTSFGLLKL
notes: scDuokine from HEK293, FLAG-purified; VH leader left out; also called single-chain Duokine scCD27L-scCD40L; not shown: N-terminal FLAG tag
For the molecule B5, the binding result with OX40-Fc [12] and in the assay with 4-1BB-Fc was “no binding (tested: 100 nM (FIG. 10))” throughout. For the same molecule, the “Receptor activation (EC50, nM)” value with CD40 receptor on cells [6] is 3.7 nM. Further, the EC50 with CD27-Fc [13] came out at 3.3 nM; with CD40-Fc [8] it was 8.04 nM.
